# Laboratory results: the supplement of paper PMC10126150
# ± gives the standard deviation of the averaged measurements.
# System: ATP
# Test: switch fluorescence ratio, 500 uM ATP over buffer (Cy3 cluster intensity, sum of 5 cycles each) (fold (ratio)); higher = stronger signal-on switching upon ATP binding; sequences stand for … in TCGTCGGCAGCGTCAGATGTGTATAAGAGACAGTTTTTTTTTTTTTTTTTTTTTTTTT…TC
# Conditions: aptamer strand: ATP DNA aptamer (quencher-CACCTGGGGGAGTATTGCGGAGGAAGG + anchor), 100 nM annealed; ATP concentration: 500 uM
# Method in brief: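 Clusters with intensities outside 100-1000 RFU were excluded. The remaining Cy3-labelled switching-strand clusters on a modified Illumina MiSeq flow-cell had been annealed to 100 nM quencher-labelled ATP aptamer and imaged in selection buffer, then after 15 min with 500 uM ATP at 22 °C, for five cycles separated by NaOH stripping and re-annealing. The fluorescence ratio, averaged per switch-domain sequence, is each cluster's summed target-cycle Cy3 intensity over its summed buffer-cycle Cy3 intensity.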
# 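Note: ATP exposure 15 min at 22 °C before imaging.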
row,Sequence,switch fluorescence ratio
1,GCCAGGGCGC,1.02 ± 0.018
2,GCCAGGGGGG,1.01 ± 0.029
3,GCCAGTTTGT,0.9807 ± 0.0052
4,GCCATAGCCT,0.9953 ± 0.0084
5,GCCATAGGTC,1.012 ± 0.0043
6,GCCATCAATA,1.03 ± 0.023
7,GCCATCAGAG,0.973 ± 0.0044
8,GCCATCGGGG,1.03 ± 0.012
9,GCCATTGTGG,0.99 ± 0.019
10,GCCATTTTGG,0.993 ± 0.013
11,GCCCAATATC,2.68 ± 0.053
12,GCCCAATTTT,0.998 ± 0.034
13,GCCCAGACGG,1.31 ± 0.41
14,GCCCCACCTT,1.08 ± 0.021
15,GCCCCCAGCG,4.61 ± 0.65
16,GCCCCGTTTG,1.0184 ± 0.00021
17,GCCCGACTCT,1.01 ± 0.041
18,GCCCGGGATT,1 ± 0.012
19,GCCCTAAGGC,0.979 ± 0.054
20,GCCCTCCAGA,1.14 ± 0.13
21,GCCCTGGGTC,1.02 ± 0.06
22,GCCCTTGTAC,1.2 ± 0.094
23,GCCGAATCTG,1 ± 0.02
24,GCCGATGCCT,1.02 ± 0.015
25,GCCGCCCTGG,1.056 ± 0.0076

row,Sequence,switch fluorescence ratio
1,GCCGCCGTAA,1.3 ± 0.079
2,GCCGCGAAGG,1.02 ± 0.018
3,GCCGCGGGTC,1.08 ± 0.048
4,GCCGGAAGAA,1.05 ± 0.037
5,GCCGGACATT,0.998 ± 0.02
6,GCCGGAGCGG,1.38 ± 0.062
7,GCCGGCAAGT,1.02 ± 0.016
8,GCCGGCCGGA,1.02 ± 0.02
9,GCCGGGAGTA,1.004 ± 0.0031
10,GCCGGGCTTG,1.02 ± 0.017
11,GCCGGGGACG,1.01 ± 0.011
12,GCCGGGGTGA,1.04 ± 0.043
13,GCCGTAGTGC,1.01 ± 0.03
14,GCCGTATGCT,0.9859 ± 0.0092
15,GCCGTCTCCC,1.03 ± 0.047
16,GCCGTGGCGG,0.9753 ± 0.0041
17,GCCGTTGCAT,1.022 ± 0.0019
18,GCCTAATAGT,0.98 ± 0.027
19,GCCTAATGTT,0.957 ± 0.022
20,GCCTACTGTT,0.9855 ± 0.0094
21,GCCTAGGGTT,1 ± 0.023
22,GCCTATAGTC,0.991 ± 0.03
23,GCCTGAGAGC,0.9754 ± 0.0021
24,GCCTGGGGGA,1.07 ± 0.12
25,GCCTGGTTGG,0.995 ± 0.015

row,Sequence,switch fluorescence ratio
1,GCCTGTAGGA,1.01 ± 0.015
2,GCCTGTATAG,0.9958 ± 0.0052
3,GCCTGTTTGT,0.983 ± 0.02
4,GCCTTAGGGT,1.015 ± 0.0029
5,GCCTTAGTGA,0.9959 ± 0.0046
6,GCCTTATATG,0.968 ± 0.03
7,GCCTTCCTTT,2.15 ± 0.72
8,GCCTTGACAG,0.989 ± 0.025
9,GCCTTGGACG,1.041 ± 0.0076
10,GCCTTGGGGG,1 ± 0.028
11,GCCTTTCAGA,1.005 ± 0.0053
12,GCCTTTTGCG,1.01 ± 0.018
13,GCGAAGGCGT,0.9709 ± 0.0033
14,GCGAAGTGCG,0.979 ± 0.015
15,GCGAATCGGT,1.01 ± 0.022
16,GCGAATGCTG,1.006 ± 0.0089
17,GCGAATTAGA,1 ± 0.034
18,GCGAATTAGG,0.9719 ± 0.0032
19,GCGAATTTTG,0.9994 ± 0.0081
20,GCGACCCTT,1.12 ± 0.037
21,GCGACGAAGG,1.02 ± 0.012
22,GCGACGGGGA,1.08 ± 0.021
23,GCGAGAATAT,1.03 ± 0.043
24,GCGAGAGGAT,0.985 ± 0.028
25,GCGAGATCTT,0.968 ± 0.015

row,Sequence,switch fluorescence ratio
1,GCGAGCGATG,0.9988 ± 0.0062
2,GCGAGCGCTG,1.02 ± 0.032
3,GCGAGGCCAA,1.28 ± 0.054
4,GCGAGGGGTG,1.02 ± 0.048
5,GCGAGGTCGA,0.991 ± 0.038
6,GCGATAGTGG,0.974 ± 0.011
7,GCGATATGTT,1.03 ± 0.043
8,GCGATCAGCT,1.034 ± 0.0022
9,GCGATGAGAG,1.03 ± 0.026
10,GCGATGGGGC,1.04 ± 0.039
11,GCGATGTCT,0.9976 ± 0.0065
12,GCGATTAAAT,1.018 ± 0.0019
13,GCGATTGATG,1.02 ± 0.026
14,GCGATTGTGT,1.002 ± 0.0055
15,GCGATTTCGG,0.985 ± 0.023
16,GCGCACCACG,1.06 ± 0.029
17,GCGCATGAAG,0.983 ± 0.013
18,GCGCATTTAG,1.15 ± 0.066
19,GCGCCCAGTT,1.003 ± 0.0029
20,GCGCCCATGA,0.982 ± 0.043
21,GCGCCGTGGC,0.99035 ± 0.00081
22,GCGCCTTAAA,0.967 ± 0.041
23,GCGCTAGATG,1.008 ± 0.0093
24,GCGCTAGTTT,1 ± 0.016
25,GCGCTCGGCA,1.019 ± 0.00084
